What all share (experiment): SPR
Assay [1] deals with T1, Paxillin LD2 peptide (141-…-153).
T1 chain: NLSELDRLLLELN
The note with it: chain shown with the change, right panel, peptide concentration not given.

The target in assay [2] is T2, Stapled peptide 1907, P49023.
T2 chain: NL
The note with it: chain shown with the change; right panel; peptide concentration not given.

The target in assay [3] is T3, Peptide 2013, unstapled version of 1907, P49023.
T3 chain: NL
The note with it: chain shown with the change; right panel; peptide concentration not given.

We go through one molecule from PMC11871066, “Structure-based discovery of hydrocarbon-stapled paxillin peptides that block FAK scaffolding in cancer” (Nature Communications, 2025).

B1: Biotinylated AviTag FAK FAT protein, Q05397 I936E; L994E (protein)
chain: MAAAYLDPNLNHTPNSSTKTHLGTGMERSPGAMERVLKVFHYFESNSEPTTWASIIRHGDATDVRGIIQKIVDSHKVKHVACYGFRLSHLRSEEVHWLHVDMGVSSVREKYELAHPPEEWKYELRIRYLPKGFLNQFTEDKPTLNFFYQQVKSDYMLEIADQVDQEIALKLGCLEIRRSYWEMRGNALEKKSNYEVLEKDVGLKRFFPKSLLDSVKAKTLRKLIQQTFRQFANLNREESILKFFEILSPVYRFDKECFKCALGSSWIISVELAIGPEEGISYLTDKGCNPTHLADFTQVQTIQYSNSEDKDRKGMLQLKIAGAPEPLTVTAPSLTIAENMADLIDGYCRLVNGTSQSFIIRPQKEGERALPSIPKLANSEKQGMRTHAVSVSETDDYAEIIDEEDTYTMPSTRDYEIQRERIELGRCIGEGQFGDVHQGIYMSPENPALAVAIKTCKNCTSDSVREKFLQEALTMRQFDHPHIVKLIGVITENPVWIIMELCTLGELRSFLQVRKYSLDLASLILYAYQLSTALAYLESKRFVHRDIAARNVLVSSNDCVKLGDFGLSRYMEDSTYYKASKGKLPIKWMAPESINFRRFTSASDVWMFGVCMWEILMHGVKPFQGVKNNDVIGRIENGERLPMPPNCPPTLYSLMTKCWAYDPSRRPRFTELKAQLSTILEEEKAQQEERMRMESRRQATVSWDSGGSDEAPPKPSRPGYPSPRSSEGFYPSPQHMVQTNHYQVSGYPGSHGITAMAGSIYPGQASLLDQTDSWNHRPQEIAMWQPNVEDSTVLDLRGIGQVLPTHLMEERLIRQQQEMEEDQRWLEKEERFLKPDVRLSRGSIDREDGSLQGPIGNQHIYQPVGKPDPAAPPKKPPRPGAPGHLGSLASLSSPADSYNEGVKLQPQEISPPPTANLDRSNDKVYENVTGLVKAVEEMSSKIQPAPPEEYVPMVKEVGLALRTLLATVDETIPLLPASTHREIEMAQKLLNSDEGELINKMKLAQQYVMTSLQQEYKKQMLTAAHALAVDAKNLLDVIDQARLKMLGQTRPH
For the molecule B1, the ratio to parent in assay [1] was 4; in assay [2] it was 238; in assay [3] it was 33. Moreover, the response in assay [1] (plateau of the sensorgram near the end of injection (about 75 s), parent: est. 58, read off a plot) is 14 RU.
